Experimental data as given in PMC3887213.

Key:
Experiment in all cases: two-hybrid; quantitative YTH (Q-YTH): chlorophenol-red-β-D-galactopyranoside colour change at 540 nm, background (bait + empty pACT2) subtracted, normalised to wild-type RocCOR = 100%
[1] = target: LRRK2 RocCOR tandem domain R1441H (LexA-BD bait) (human) (UniProt Q5S007)
[2] = target: LRRK2 RocCOR tandem domain R1441G (LexA-BD bait) (human) (UniProt Q5S007)
[3] = target: LRRK2 RocCOR tandem domain R1441C (LexA-BD bait) (human) (UniProt Q5S007)
LRRK2 RocCOR tandem domain R1441C (LexA-BD bait) (human), sequence (Q5S007 whole entry R1441C, the tested form may be a part): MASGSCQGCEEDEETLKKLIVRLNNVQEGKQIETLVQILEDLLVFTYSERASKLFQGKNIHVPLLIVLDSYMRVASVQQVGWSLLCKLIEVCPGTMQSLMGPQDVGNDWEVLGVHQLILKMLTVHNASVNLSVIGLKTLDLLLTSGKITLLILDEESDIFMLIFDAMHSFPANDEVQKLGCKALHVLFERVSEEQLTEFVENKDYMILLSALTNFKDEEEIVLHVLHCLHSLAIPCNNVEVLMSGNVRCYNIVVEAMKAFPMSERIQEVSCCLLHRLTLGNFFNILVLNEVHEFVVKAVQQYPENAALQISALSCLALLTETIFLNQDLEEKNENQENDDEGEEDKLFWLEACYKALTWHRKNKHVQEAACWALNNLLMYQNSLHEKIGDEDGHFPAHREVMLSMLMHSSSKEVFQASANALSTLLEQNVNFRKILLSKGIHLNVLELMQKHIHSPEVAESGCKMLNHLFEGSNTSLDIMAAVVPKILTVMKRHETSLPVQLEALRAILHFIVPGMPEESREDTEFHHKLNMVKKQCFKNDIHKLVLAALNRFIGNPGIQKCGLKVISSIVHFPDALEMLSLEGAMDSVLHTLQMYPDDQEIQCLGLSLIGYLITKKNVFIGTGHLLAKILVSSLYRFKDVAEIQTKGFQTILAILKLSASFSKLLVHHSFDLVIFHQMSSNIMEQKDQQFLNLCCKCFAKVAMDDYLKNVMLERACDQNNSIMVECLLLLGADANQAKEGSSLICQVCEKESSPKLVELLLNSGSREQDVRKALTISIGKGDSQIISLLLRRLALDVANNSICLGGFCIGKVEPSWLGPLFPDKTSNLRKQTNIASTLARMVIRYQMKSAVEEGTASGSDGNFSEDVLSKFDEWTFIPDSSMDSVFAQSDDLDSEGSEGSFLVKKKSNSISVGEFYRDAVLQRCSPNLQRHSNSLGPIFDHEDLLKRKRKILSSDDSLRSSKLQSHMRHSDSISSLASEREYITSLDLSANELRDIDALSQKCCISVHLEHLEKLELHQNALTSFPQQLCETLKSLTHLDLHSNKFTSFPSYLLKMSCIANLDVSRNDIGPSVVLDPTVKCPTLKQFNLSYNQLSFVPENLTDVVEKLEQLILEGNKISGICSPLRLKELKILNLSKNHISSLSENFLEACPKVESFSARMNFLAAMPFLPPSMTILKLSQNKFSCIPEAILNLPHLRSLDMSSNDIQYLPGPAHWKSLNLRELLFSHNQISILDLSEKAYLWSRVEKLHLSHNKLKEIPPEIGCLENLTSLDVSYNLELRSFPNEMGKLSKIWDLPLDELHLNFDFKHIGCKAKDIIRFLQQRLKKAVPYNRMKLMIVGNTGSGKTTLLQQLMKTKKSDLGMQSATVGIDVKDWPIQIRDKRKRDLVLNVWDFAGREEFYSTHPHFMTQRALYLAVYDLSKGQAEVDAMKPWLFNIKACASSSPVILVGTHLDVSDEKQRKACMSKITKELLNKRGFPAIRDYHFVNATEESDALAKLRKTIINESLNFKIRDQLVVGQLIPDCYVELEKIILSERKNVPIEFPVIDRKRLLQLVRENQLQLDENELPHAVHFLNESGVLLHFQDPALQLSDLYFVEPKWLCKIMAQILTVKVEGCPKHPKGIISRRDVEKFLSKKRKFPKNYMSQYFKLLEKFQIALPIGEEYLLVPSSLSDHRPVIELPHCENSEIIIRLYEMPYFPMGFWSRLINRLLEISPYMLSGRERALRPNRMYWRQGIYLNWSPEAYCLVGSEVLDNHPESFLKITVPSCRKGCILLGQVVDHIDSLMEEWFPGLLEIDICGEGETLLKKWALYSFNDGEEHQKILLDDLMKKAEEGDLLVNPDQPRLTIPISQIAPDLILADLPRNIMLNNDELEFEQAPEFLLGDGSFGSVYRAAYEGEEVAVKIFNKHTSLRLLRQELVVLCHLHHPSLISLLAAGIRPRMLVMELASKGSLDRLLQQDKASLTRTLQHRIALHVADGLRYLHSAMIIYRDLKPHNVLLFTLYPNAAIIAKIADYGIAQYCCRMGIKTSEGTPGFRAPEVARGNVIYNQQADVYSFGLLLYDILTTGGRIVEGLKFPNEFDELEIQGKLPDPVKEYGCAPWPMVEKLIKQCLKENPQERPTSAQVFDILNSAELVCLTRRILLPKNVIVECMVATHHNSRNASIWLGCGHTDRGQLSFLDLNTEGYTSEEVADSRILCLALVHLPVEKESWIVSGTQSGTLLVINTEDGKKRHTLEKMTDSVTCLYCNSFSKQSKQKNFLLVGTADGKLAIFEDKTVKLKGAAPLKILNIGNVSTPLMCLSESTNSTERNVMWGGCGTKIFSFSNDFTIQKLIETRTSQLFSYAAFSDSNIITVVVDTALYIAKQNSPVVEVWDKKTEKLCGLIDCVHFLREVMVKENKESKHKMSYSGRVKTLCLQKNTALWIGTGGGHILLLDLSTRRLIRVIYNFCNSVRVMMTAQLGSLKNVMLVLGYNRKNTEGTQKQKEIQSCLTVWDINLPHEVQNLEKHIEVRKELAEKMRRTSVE

TUBB4 C terminus (Phe-317 to Ala-444), GAL4-AD prey, sequence (P04350 317-444): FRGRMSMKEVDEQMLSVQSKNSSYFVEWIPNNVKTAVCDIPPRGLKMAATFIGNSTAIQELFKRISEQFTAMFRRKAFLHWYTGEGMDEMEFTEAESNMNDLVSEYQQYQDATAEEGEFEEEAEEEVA
TUBB C terminus (Phe-317 to the stop codon), GAL4-AD prey, sequence (P07437 317-444): as the sequence (P04350 317-444) above, with S16N, S19N, A49V, G117E, F119D, E120F, E121G, A123E, E124A, V127E counted along it
LRRK2 RocCOR tandem domain R1441G (LexA-BD bait) (human), sequence (Q5S007 whole entry R1441G, the tested form may be a part): as the sequence (Q5S007 whole entry R1441C, the tested form may be a part) above, with C1441G counted along it
LRRK2 RocCOR tandem domain R1441H (LexA-BD bait) (human), sequence (Q5S007 whole entry R1441H, the tested form may be a part): as the sequence (Q5S007 whole entry R1441C, the tested form may be a part) above, with C1441H counted along it

| percent reduction of the interaction against wild-type RocCOR (Q-YTH) [1] | percent reduction of the interaction against wild-type RocCOR (Q-YTH) [2] | percent increase of the interaction against wild-type RocCOR (Q-YTH) [3] | Substance |
| --- | --- | --- | --- |
| 25% | 50% | 25% | TUBB4 C terminus (Phe-317 to Ala-444), GAL4-AD prey (from UniProt P04350 317-444) (domain or fragment) |
| 25% | 50% | 25% | TUBB C terminus (Phe-317 to the stop codon), GAL4-AD prey (from UniProt P07437 317-444) (domain or fragment) |
